# Results taken from patent publication US20200277366A1 (UCB, published 2020).
# T1: murine TNF-alpha (mouse, UniProt P06804 80-235)
# T1 construct: also called mouse TNF; Murine TNF-α
# T1 sequence (looked up): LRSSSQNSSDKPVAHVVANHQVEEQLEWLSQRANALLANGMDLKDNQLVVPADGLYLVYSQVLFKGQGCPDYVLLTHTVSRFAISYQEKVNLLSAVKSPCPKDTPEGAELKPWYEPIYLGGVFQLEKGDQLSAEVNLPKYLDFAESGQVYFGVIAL
# T2: cynomolgus IL-17F (cynomolgus, UniProt G7P4V0 31-163)
# T2 construct: also called cyno IL-17F
# T2 sequence: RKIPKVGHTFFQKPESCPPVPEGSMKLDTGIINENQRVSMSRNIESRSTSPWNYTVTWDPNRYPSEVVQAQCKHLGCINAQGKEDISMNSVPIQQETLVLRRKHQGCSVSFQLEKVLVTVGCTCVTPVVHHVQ
# T3: human IL-17F (human, UniProt Q96PD4 31-163)
# T3 sequence (looked up): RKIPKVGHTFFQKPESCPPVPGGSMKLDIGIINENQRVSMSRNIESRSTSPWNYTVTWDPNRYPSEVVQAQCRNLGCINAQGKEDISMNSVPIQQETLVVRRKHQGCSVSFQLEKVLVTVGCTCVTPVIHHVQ
# Legend:
# human IL-17A [1] = target: T4, human IL-17A (human, UniProt Q16552 24-155); assay: SPR (Biacore T200), TrYbe 18B captured by anti-human F(ab')2, human IL-17A titrated 5 nM to 0.15625 nM
# T4 construct: also called hIL-17A
# Method: (§1) BIA (Biamolecular Interaction Analysis) was performed using a Biacore T200 (GE Healthcare). Affinipure F(ab′)2 Fragment goat anti-human IgG, F(ab′)2 fragment specific (Jackson ImmunoResearch) was immobilised on a CM5 Sensor Chip via amine coupling chemistry to a capture level of ˜5000 response units (RUs). HBS-EP buffer (10 mM HEPES pH 7.4, 0.15 M NaCl, 3 mM EDTA, 0.05% Surfactant P20, GE Healthcare) was used as the running buffer with a flow rate of 10 μL/min. […] The surface was regenerated by 2×10 μL injection of 50 mM HCl, interspersed by a 5 μL injection of 5 mM NaOH at a flowrate of 10 μL/min. Background subtraction binding curves were analysed using the T200evaluation software (version 1.0) following standard procedures. Kinetic parameters were determined from the fitting algorithm.
# cynomolgus IL-17A [2] = target: T5, cynomolgus IL-17A (cynomolgus, UniProt A0A2K5TTB0 24-155); assay: SPR (Biacore T200), TrYbe 18B captured; column head prints KD(nM), but the KD(M) column shows the value is in pM; kd at the instrument's limit
# T5 construct: also called cIL-17A; cynoIL-17A
# Method: as §1, with “of […]. Background subtraction” for “of 10 μL/min. Background subtraction”
# cynomolgus TNF-alpha [3] = target: T6, cynomolgus TNF-alpha (cynomolgus, UniProt P79337 77-233); assay: cell-based or functional assay
# human TNF-alpha [4] = target: T7, human TNF-alpha (human, UniProt P01375 77-233); assay: cell-based or functional assay
# human IL-17A [5] = target: T4, human IL-17A; assay: SPR (Biacore T200), TrYbe 18B captured by anti-human F(ab')2, human IL-17A titrated 5 nM to 0.15625 nM; kd at the instrument's limit
# Method: as §1
# human IL-17A [6] = target: T4, human IL-17A; assay: SPR (Biacore T200), TrYbe 18B captured by anti-human F(ab')2, human IL-17A titrated 5 nM to 0.15625 nM; footnote: dissociation limited due to limit of the instrument
# Method: as §1
# murine TNF-alpha = target: T1, murine TNF-alpha; assay: L929 cell killing assay with murine TNF-α (N=3); told in words
# human TNF-alpha [7] = target: T7, human TNF-alpha; assay: SPR (Biacore T200), TrYbe 18B captured by anti-human F(ab')2, human TNF titrated 5 nM to 0.15625 nM
# Method: as §1
# cynomolgus TNF-alpha [8] = target: T6, cynomolgus TNF-alpha; assay: SPR (Biacore T200), TrYbe 18B captured; column head prints KD(nM), but the KD(M) column shows the value is in pM
# Method: as §1, with “of […]. Background subtraction” for “of 10 μL/min. Background subtraction”
# cynomolgus IL-17F [9] = target: T2, cynomolgus IL-17F; assay: as above
# Method: as §1, with “of […]. Background subtraction” for “of 10 μL/min. Background subtraction”
# cynomolgus serum albumin [10] = target: T8, cynomolgus serum albumin (cynomolgus, UniProt A2V9Z4 25-608); assay: as above
# T8 construct: also called Cynomolgus Albumin; CSA
# Method: as §1, with “of […]. Background subtraction” for “of 10 μL/min. Background subtraction”
# human IL-17F = target: T3, human IL-17F; assay: SPR (Biacore T200), TrYbe 18B captured by anti-human F(ab')2, human IL-17F titrated 10 nM to 0.3125 nM
# Method: as §1
# cynomolgus IL-17F [11] = target: T2, cynomolgus IL-17F; assay: SPR (Biacore T200), TrYbe 18B captured by anti-human F(ab')2, cynomolgus IL-17F titrated 40 nM to 1.25 nM
# Method: as §1, with “of […]. Background subtraction” for “of 10 μL/min. Background subtraction”
# cynomolgus IL-17A [12] = target: T5, cynomolgus IL-17A; assay: SPR (Biacore T200), TrYbe 18B captured by anti-human F(ab')2, cynomolgus IL-17A titrated 10 nM to 0.3125 nM; footnote: dissociation limited due to limit of the instrument
# Method: as §1, with “of […]. Background subtraction” for “of 10 μL/min. Background subtraction”
# cynomolgus TNF-alpha [13] = target: T6, cynomolgus TNF-alpha; assay: SPR (Biacore T200), TrYbe 18B captured by anti-human F(ab')2, cynomolgus TNF titrated 5 nM to 0.15625 nM
# Method: as §1, with “of […]. Background subtraction” for “of 10 μL/min. Background subtraction”
# cynomolgus IL-17A [14] = target: T5, cynomolgus IL-17A; assay: SPR (Biacore T200), TrYbe 18B captured by anti-human F(ab')2, cynomolgus IL-17A titrated 10 nM to 0.3125 nM
# Method: as §1, with “of […]. Background subtraction” for “of 10 μL/min. Background subtraction”
# human serum albumin = target: T9, human serum albumin (human, UniProt P02768 25-609); assay: SPR (Biacore T200), TrYbe 18B captured by anti-human F(ab')2, HSA titrated 100 nM to 3.125 nM
# T9 construct: also called HSA; Human Albumin
# Method: as §1
# cynomolgus IL-17A [15] = target: T5, cynomolgus IL-17A; assay: SPR (Biacore T200), TrYbe 18B captured by anti-human F(ab')2, cynomolgus IL-17A titrated 10 nM to 0.3125 nM; kd at the instrument's limit
# Method: as §1, with “of […]. Background subtraction” for “of 10 μL/min. Background subtraction”
# cynomolgus serum albumin [16] = target: T8, cynomolgus serum albumin; assay: SPR (Biacore T200), TrYbe 18B captured by anti-human F(ab')2, cynomolgus albumin titrated 100 nM to 3.125 nM
# Method: as §1, with “of […]. Background subtraction” for “of 10 μL/min. Background subtraction”
binder,measurement,setting,value
"Fab496.g3-(HC)dsscFv(HL)2109 / Fab496.g3-(LC)dsscFv(HL)645 (TrYbe 18B) (other, Tri-specific Fab-2xdsscFv (TrYbe) with no Fc; Stably expressed in CHO; also called Fab496.g3-(HC)dsHLscFv2109 (LC)dsHLscFv645) heavy: EVQLVESGGGLVQPGGSLRLSCAASGFTFSDYNMAWVRQAPGKGLEWVATITYEGRNTYYRDSVKGRFTISRDNAKNSLYLQMNSLRAEDTAVYYCASPPQYYEGSIYRLWFAHWGQGTLVTVSSASTKGPSVFPLAPSSKSTSGGTAALGCLVKDYFPEPVTVSWNSGALTSGVHTFPAVLQSSGLYSLSSVVTVPSSSLGTQTYICNVNHKPSNTKVDKKVEPKSCSGGGGSGGGGSEVQLVESGGGLVKPGGSLRLSCAASGYTFTDNYIHWVRQAPGKCLEWIGYINPSSAYAHYNEKFKTRFTISVDKAKNSAYLQMNSLRAEDTAVYYCTRRYYSAMPFAYWGQGTLVTVSSGGGGSGGGGSGGGGSGGGGSDIQMTQSPSSLSASVGDRVTITCRASEDIYSGLAWYQQKPGKVPKLLIYDSSTLHTGVPSRFSGTGSGTDYTLTISSLQPEDVATYFCQQNYDFPLTFGCGTKLEIKRT light: AIQLTQSPSSLSASVGDRVTITCRADESVRTLMHWYQQKPGKAPKLLIYLVSNSEIGVPDRFSGSGSGTDFRLTISSLQPEDFATYYCQQTWSDPWTFGQGTKVEIKRTVAAPSVFIFPPSDEQLKSGTASVVCLLNNFYPREAKVQWKVDNALQSGNSQESVTEQDSKDSTYSLSSTLTLSKADYEKHKVYACEVTHQGLSSPVTKSFNRGECSGGGGSGGGGSEVQLLESGGGLVQPGGSLRLSCAVSGIDLSNYAINWVRQAPGKCLEWIGIIWASGTTFYATWAKGRFTISRDNSKNTVYLQMNSLRAEDTAVYYCARTVPGYSTAPYFDLWGQGTLVTVSSGGGGSGGGGSGGGGSGGGGSDIQMTQSPSSVSASVGDRVTITCQSSPSVWSNFLSWYQQKPGKAPKLLIYEASKLTSGVPSRFSGSGSGTDFTLTISSLQPEDFATYYCGGGYSSISDTTFGCGTKVEIKRT",kon,human IL-17A [1],5.52e+06 M⁻¹ s⁻¹
same,Kd,cynomolgus IL-17A [2],5.99 pM
same,"Mean EC50, L929 cell survival (CellTiter-Glo) with Actinomycin D and cynomolgus TNF-α",cynomolgus TNF-alpha [3],4.97 pM
same,"Mean EC50, L929 cell survival (CellTiter-Glo) with Actinomycin D and human TNF-α",human TNF-alpha [4],5.87 pM
same,Kd,human IL-17A [5],≤ 1.81 pM
same,koff,human IL-17A [6],≤ 1e-05 s⁻¹
same,binding result,murine TNF-alpha,no binding
same,Kd,human TNF-alpha [7],11.6 pM
same,koff,human TNF-alpha [7],6.43e-05 s⁻¹
same,kon,human TNF-alpha [7],5.54e+06 M⁻¹ s⁻¹
same,Kd,cynomolgus TNF-alpha [8],7.16 pM
same,Kd,cynomolgus IL-17F [9],288 pM
same,Kd,cynomolgus serum albumin [10],2720 pM
same,Kd,human IL-17F,7.51 pM
same,koff,human IL-17F,3.8e-05 s⁻¹
same,kon,human IL-17F,5.06e+06 M⁻¹ s⁻¹
same,Kd,cynomolgus IL-17F [11],288 pM
same,koff,cynomolgus IL-17F [11],0.000167 s⁻¹
same,kon,cynomolgus IL-17F [11],582000 M⁻¹ s⁻¹
same,koff,cynomolgus IL-17A [12],≤ 1e-05 s⁻¹
same,Kd,cynomolgus TNF-alpha [13],7.16 pM
same,koff,cynomolgus TNF-alpha [13],6.38e-05 s⁻¹
same,kon,cynomolgus TNF-alpha [13],8.9e+06 M⁻¹ s⁻¹
same,kon,cynomolgus IL-17A [14],1.67e+06 M⁻¹ s⁻¹
same,Kd,human serum albumin,1740 pM
same,koff,human serum albumin,0.000135 s⁻¹
same,kon,human serum albumin,77500 M⁻¹ s⁻¹
same,Kd,cynomolgus IL-17A [15],≤ 5.99 pM
same,Kd,cynomolgus serum albumin [16],2720 pM
same,koff,cynomolgus serum albumin [16],0.000159 s⁻¹
same,kon,cynomolgus serum albumin [16],58300 M⁻¹ s⁻¹
